From US6635743 come the findings set out here.

To fix the notation:
T1: TR6-(His), recombinant TR6 protein with hexa-histidine at the C-terminus (human, UniProt O95407 30-300)
T1 construct: also called DcR3; TR6 (DcR3)
T1 sequence: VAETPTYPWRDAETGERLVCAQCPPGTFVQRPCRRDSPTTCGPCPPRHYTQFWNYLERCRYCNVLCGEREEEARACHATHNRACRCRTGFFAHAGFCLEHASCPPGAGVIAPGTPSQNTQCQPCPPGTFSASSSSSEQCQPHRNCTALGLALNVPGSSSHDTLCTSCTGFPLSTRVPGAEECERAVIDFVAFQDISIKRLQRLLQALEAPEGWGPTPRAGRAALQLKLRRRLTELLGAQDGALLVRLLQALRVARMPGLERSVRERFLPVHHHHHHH

T2: DR4 (UniProt O00220 24-239, limits assumed)
T2 construct: also called TRAIL-R1; APO-2
T2 sequence (looked up): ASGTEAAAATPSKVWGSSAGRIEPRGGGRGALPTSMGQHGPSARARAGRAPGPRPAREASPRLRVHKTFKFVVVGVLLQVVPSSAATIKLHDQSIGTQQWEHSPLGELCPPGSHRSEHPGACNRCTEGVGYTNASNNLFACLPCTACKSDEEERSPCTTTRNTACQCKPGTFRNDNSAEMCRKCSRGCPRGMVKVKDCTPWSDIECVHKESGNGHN

T3: TNFRI (UniProt P19438 30-211, limits assumed)
T3 construct: also called TNFR1
T3 sequence (looked up): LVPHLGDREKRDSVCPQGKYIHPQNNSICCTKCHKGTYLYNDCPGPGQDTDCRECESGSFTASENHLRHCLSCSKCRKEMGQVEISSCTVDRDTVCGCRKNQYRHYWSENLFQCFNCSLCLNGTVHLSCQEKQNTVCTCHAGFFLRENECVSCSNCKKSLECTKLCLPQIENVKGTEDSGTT

T4: Fas (UniProt P25445 26-173, limits assumed)
T4 construct: also called CD95; APO-1
T4 sequence (looked up): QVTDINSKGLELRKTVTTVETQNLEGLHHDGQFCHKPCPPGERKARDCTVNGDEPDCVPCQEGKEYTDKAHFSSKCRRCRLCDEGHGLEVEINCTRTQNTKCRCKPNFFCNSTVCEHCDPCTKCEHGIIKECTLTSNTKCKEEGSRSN

T5: DR3 (UniProt Q93038 25-199, limits assumed)
T5 construct: also called TRAMP; APO-3
T5 sequence (looked up): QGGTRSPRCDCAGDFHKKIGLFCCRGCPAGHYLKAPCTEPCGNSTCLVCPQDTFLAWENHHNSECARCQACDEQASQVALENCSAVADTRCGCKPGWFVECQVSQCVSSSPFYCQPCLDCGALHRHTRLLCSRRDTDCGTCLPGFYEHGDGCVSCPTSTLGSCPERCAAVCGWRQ

T6: TR2 on the surface of MDA-MB-231 and HT-29 cells and of T cells (human, UniProt Q92956 39-283)
T6 construct: whole, on cells; The tumour cells carry both LTβR and TR2; also called HVEM; ATAR
T6 sequence (looked up): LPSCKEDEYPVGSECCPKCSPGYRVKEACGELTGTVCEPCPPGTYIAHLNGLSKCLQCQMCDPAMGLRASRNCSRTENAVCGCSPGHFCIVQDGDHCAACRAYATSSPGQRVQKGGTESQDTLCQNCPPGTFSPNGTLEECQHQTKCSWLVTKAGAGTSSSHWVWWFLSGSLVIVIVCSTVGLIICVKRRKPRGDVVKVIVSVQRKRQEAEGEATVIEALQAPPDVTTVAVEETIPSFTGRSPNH

B1: lymphotoxin beta receptor (LTβR)-Fc fusion protein (Fc fusion, human, UniProt P36941 31-227, looked up)
chain: QAVPPYASENQTCRDQEKEYYEPQHRICCSRCPPGTYVSAKCSRIRDTVCATCAENSYNEHWNYLTICQLCRPCDPVMGLEEIAPCTSKRKTQCRCQPGMFCAAWALECTHCELLSDCPPGTEAELKDEVGKGNNHCVPCKAGHFQNTSSPSARCQPHTRCENQGLVEAAPGTAQSDTTCKNPLEPLPPEMSGTMLM
notes: extracellular domain; also called sLTβR-Fc; lymphotoxin-β receptor-Fc fusion protein; not shown: IgG1 Fc from vector pUC19-IgG1-Fc
B2: full-length AIM II (LIGHT) expressed on the cell surface (ligand)
chain: MEESVVRPSVFVVDGQTDIPFTRLGRSHRRQSCSVARVGLGLLLLLMGAGLAVQGWFLLQLHWRLGEMVTRLPDGPAGSWEQLIQERRSHEVNPAAHLTGANSSLTGSGGPLLWETQLGLAFLRGLSYHDGALVVTKAGYYYIYSKVQLGGVGCPLGLASTITHGLYKRTPRYPEELELLVSQQSPCGRATSSSRVWWDSSFLGGVVHLEAGEEVVVRVLDERLVRLRDGTRSYFGAFMV
B3: Flag-tagged soluble AIM II protein (sAIM II), amino acids 74-240 of AIM II (ligand)
chain: DGPAGSWEQLIQERRSHEVNPAAHLTGANSSLTGSGGPLLWETQLGLAFLRGLSYHDGALVVTKAGYYYIYSKVQLGGVGCPLGLASTITHGLYKRTPRYPEELELLVSQQSPCGRATSSSRVWWDSSFLGGVVHLEAGEEVVVRVLDERLVRLRDGTRSYFGAFMV
notes: also called sLIGHT; AIM II-Flag; not shown: N-terminal FLAG peptide tag from vector pFLAG.CMV-1 (behind the preprotrypsin signal peptide)
B4: natural processed form of AIM II purified from conditioned media of MCA-38 cells transfected with full length AIM II cDNA (residues 83-240) (ligand)
chain: LIQERRSHEVNPAAHLTGANSSLTGSGGPLLWETQLGLAFLRGLSYHDGALVVTKAGYYYIYSKVQLGGVGCPLGLASTITHGLYKRTPRYPEELELLVSQQSPCGRATSSSRVWWDSSFLGGVVHLEAGEEVVVRVLDERLVRLRDGTRSYFGAFMV
notes: apparent mass about 21 kDa, said to be consistent with glycosylation; also called MCA-38 AIM II; AIM II (aa 83-240)
B5: HVEM/TR2-Fc fusion protein (Fc fusion, UniProt Q92956 39-202, looked up)
chain: LPSCKEDEYPVGSECCPKCSPGYRVKEACGELTGTVCEPCPPGTYIAHLNGLSKCLQCQMCDPAMGLRASRNCSRTENAVCGCSPGHFCIVQDGDHCAACRAYATSSPGQRVQKGGTESQDTLCQNCPPGTFSPNGTLEECQHQTKCSWLVTKAGAGTSSSHWV
notes: not shown: Fc portion; detected with anti-human IgG

Assay [1] concerns the target T7, BAP-Flag (negative control) (UniProt P00634 22-471 = phosphatase).
T7 construct: Tested as conditioned serum-free medium of transfected CHO cells
The experiment in a line: BIAcore, LTβR-Fc immobilized, conditioned serum-free media of CHO cells. How it is done:
(§1) CHO cells were transfected with either an AIM II-Flag tag expression vector or an BAP-Flag (negative control). Three days after transfection, AIM II expression was determined using the BIAcore instrument (BIAcore, Inc.) which permits real-time measurements of protein binding events to immobilized AIM II receptor, lymphotoxin-β receptor (BIAcore sensorgram detects binding by changes in refractive index at the surface of the flow cell). A lymphotoxin-β receptor-Fc fusion protein was covalently immobilized to the BIAcore flow cell via amine groups using N-ethyl-N'-(dimethylaminopropyl)carbodiimide/N-hydroxysuccinimide chemistry. Various dilutions of AIM II-Flag and the negative control (BAP-Flag) conditioned serum-free media were applied to the lymphotoxin-β-receptor-derivatized flow cell at 5 µl/min for a total volume of 50 µl. The amount of bound protein was determined after washing the flow cell with HBS buffer (10 mM HEPES, pH 7.4, 150 mM NaCl, 3.4 mM EDTA, 0.005% Surfactant P20). The flow cell surface was regenerated by displacing bound protein by washing with 20 µl of 10 mM HCl.

The target of assay [2] is B2. The assay is described as follows: flow cytometry on AIM II (LIGHT)-transfected HEK 293 EBNA cells, FITC anti-human IgG. How it is done: (§2) After selection with Hygromycin B, cells were harvested with 1 mM EDTA in PBS and incubated with TR6-(His), HVEM/TR2-Fc, or LTβR-Fc for 20 minutes on ice. For detecting Fc-fusion protein, cells were stained with FITC-conjugated goat anti-human IgG. To detect TR6 binding, cells were stained with anti-poly(His)_6 and FITC conjugated goat anti-mouse IgG consecutively. The cells were analyzed by FACScan (Becton Dickinson).
(§3) These bindings indicate that TR6 can bind to both soluble and membrane-bound forms of AIM II (LIGHT).
A general note: In flow cytometry, cells or beads pass a laser one at a time.

The target in assay [3] is T1, TR6-(His), recombinant TR6 protein with …. The assay is described as follows: flow cytometry on AIM II (LIGHT)-transfected HEK 293 EBNA cells, anti-poly(His)6 and FITC anti-mouse IgG. As to the method: as §2, §3
Another assay concerns the target T2, DR4. The experiment in a line: in vitro binding assay, not described.
Another assay concerns the target T8, DR5 (UniProt O14763 56-210, limits assumed).
T8 construct: also called TRAIL-R2
The assay is described as follows: in vitro binding assay, not described.

Assay [4] deals with T1, TR6-(His), recombinant TR6 protein with …. The assay is described as follows: summary of the experiments of Example 13.
The next assay concerns the target T3, TNFRI. The assay is described as follows: 'in a similar assay'; format not described.
Another assay has as its target T4, Fas. The assay is described as follows: 'in a similar assay'; format not described.
The next assay deals with T5, DR3. The experiment in a line: 'in a similar assay'; format not described.
Assay [5] deals with T9, LTβR on the surface of MDA-MB-231 and HT-29 cells (human, UniProt P36941 31-435).
T9 construct: whole, on cells; The cells carry both LTβR and TR2; also called lymphotoxin β receptor
The experiment in a line: summary of the FACS and cytotoxicity experiments. As to the method: (§4) FIGS. 8A–8M. Cell surface expression of the LTβR or TR2 by the FACS analyses using LTβR (FIGS. 8A–8D) or TR2 (FIGS. 8E–8H) mAb. […] FACS binding analyses of soluble AIM II protein alone (FIG. 8I) and blocking of a soluble AIM II protein binding by preincubation with the LTβR-Fc fusion protein (FIG. 8J) or TR2-Fc fusion protein (FIG. 8K) in MDA-MB-231 cells. FIG. 8L summarizes the surface expression of LTβR and TR2 in various cell lines. Effects of LTβR-Fc or TR2-Fc fusion protein to block the sAIM II-mediated cytotoxicity in HT-29 cells (FIG. 8M). […] Cells were incubated for five days and the viability of cells was determined by XTT assays.
(§5) A soluble tetrazolium/formazan (XTT) assay for cell growth in a 96-well plate was performed. Cells (2,000–4,000 cells/well) were grown in IMEM medium with 10% FBS or 1% FBS. After four to five days culture, XTT (1.0 mg/ml plus PMS at 1.53 mg/ml) was added to each well and incubated for four hours at 37° C. Absorbance at 450 nm was measured with the Dynatech Model MR700.
(§6) Cells were collected by trypsinization or aspiration, and centrifuged at 1500–2000 rpm for 5 min. The cell pellets were resuspended and washed in 5 ml ice-cold PBS twice. […] Fluorescence was analyzed by a FACscan flow cytometer (Becton Dickinson, Mountain View, Calif.).

Assay [6] deals with T6, TR2 on the surface of MDA-MB-231 and …. The assay is described as follows: summary of the FACS and cytotoxicity experiments. How it is done: as §4, §5, §6
Assay [7] concerns the target B5. The assay is described as follows: FACS competition, TR2-Fc at 10 µg/ml preincubated with sAIM II. As to the method: Cells were collected by trypsinization or aspiration, and centrifuged at 1500–2000 rpm for 5 min. The cell pellets were resuspended and washed in 5 ml ice-cold PBS twice. And then, the cells were incubated with Flag-tagged AIM II protein or Abs at 10 μg/ml in the binding buffer (HBSS containing 10% BSA, 20 mM HEPES, pH 7.2, 0.02% NaN₃, and 25 μg/ml normal rat Ig) for 30 min at 4° C. Cells were then washed and stained with phycoerythrin (PE) conjugated to goat anti-mouse IgG at 20 μg/ml as described. To compete for cell surface binding, soluble LTβR-Fc fusion protein, TR2-Fc at 10 μg/ml was preincubated with AIM II for 30 min before adding to cells. Fluorescence was analyzed by a FACscan flow cytometer (Becton Dickinson, Mountain View, Calif.).

Assay [8] concerns the target B1. The assay is described as follows: BIAcore, LTβR-Fc immobilized by amine coupling, CHO conditioned serum-free media. As to the method: as §1
On the technique in general: Surface plasmon resonance follows binding to a sensor surface in real time, without labels.

The target of assay [9] is B1. The experiment in a line: LTβR-Fc affinity column, eluate tested on LTβR BIAcore chip; band of about 21 kDa specifically bound to the column. How it is done: Conditioned media from the stable transfectants, CHO11 or MCA-38 cells, were filtered, centrifuged at 10,000×g and then passed over an MCIF-Fc affinity column (control column) followed by the LTβR-Fc affinity column (0.2 mL bed volume). The columns were washed with several bed column volumes HEPES buffered saline containing 0.005% Surfactant P-20. Bound protein was eluted with 10 mM HCl (3×0.5 ml fractions) and immediately neutralized with TRIS buffer. The fractions eluted from the LTβR column retained binding to LTβR BIAcore chip, whereas, fractions eluted from the control MCIF-Fc column were negative for binding. The eluted fractions were dried in Spedvac then resuspended in 20 μl water. An aliquot of the eluted protein was analyzed by reducing SDS-PAGE gels and detected by silver staining. A band of approximately ~25 kDa and ~21 kDa was detected specifically bound to the LTβR column from CHO-11 and MCA-38 cell lines. The remaining eluted material was subject to SDS-PAGE and blotted onto PVDF membrane for N-terminal sequence analysis.

T7 sequence (P00634 22-471): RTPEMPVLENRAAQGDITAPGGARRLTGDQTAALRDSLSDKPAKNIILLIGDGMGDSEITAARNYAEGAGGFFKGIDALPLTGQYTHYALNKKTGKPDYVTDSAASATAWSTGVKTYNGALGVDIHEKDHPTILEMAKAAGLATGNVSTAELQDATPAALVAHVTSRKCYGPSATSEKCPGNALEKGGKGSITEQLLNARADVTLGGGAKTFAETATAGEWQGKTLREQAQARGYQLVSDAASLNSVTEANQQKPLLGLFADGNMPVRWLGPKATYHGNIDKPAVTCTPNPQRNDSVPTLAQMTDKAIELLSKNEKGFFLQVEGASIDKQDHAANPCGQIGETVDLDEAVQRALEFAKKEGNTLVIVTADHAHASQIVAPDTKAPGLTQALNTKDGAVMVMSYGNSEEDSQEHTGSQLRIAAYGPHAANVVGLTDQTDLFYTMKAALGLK

In the case of B1, the binding result in [1] is “no binding”; in [2], “binds”.

Turning to B2, the binding result in assay [3] is reported as “binds”.

Regarding B3, the binding result in the assay with DR4 is “no binding”; with DR5 it was “no binding”; in assay [4] it was “binds”; with TNFRI it was “no binding”; in the assay with Fas, “no binding”; with DR3, “no binding”. The binding result in [5], in assay [6], in [7] and in assay [8] was “binds” each time.

Turning to B4, the binding result in assay [9] was “binds”.

Turning to B5, the binding result in assay [2] was “binds”.
